Here are results for six molecules from paper PMC4939597, “Mechanism for insulin-like peptide 5 distinguishing the homologous relaxin family peptide receptor 3 and 4” (Scientific Reports, 2016).

No end group written: not given here. A value given as a limit tells only on which side of the number the result lay.

The target of test [1] is T1, human RXFP4 (Homo sapiens, UniProt Q8TDU9).
T1 construct: expressed in transfected cells; host or cells: HEK293T
In words: Receptor activation assay, CRE-controlled NanoLuc reporter. Format: cell-based. On the procedure: (§1) Figure 4 Receptor activation activities of the mature INSL5 and R3/I5 mutants towards RXFP3 and RXFP4. HEK293T cells transiently cotransfected by human RXFP3 or human RXFP4 and a CRE-controlled NanoLuc reporter were used for the activation assays. The measured data were expressed as mean ± SE (n = 3) and fitted to sigmoidal or linear curves using the software SigmaPlot 10.0.
(§2) The receptor activation assays of the mature INSL5 and R3/I5 mutants were carried out using a cAMP-response element (CRE)-controlled NanoLuc reporter according to our previous procedure. Briefly, HEK293T cells were transiently cotransfected with the expression construct of human RXFP3 or human RXFP4 and the CRE-controlled NanoLuc reporter vector pNL1.2/CRE. Next day, the transfected cells were trypsinised, seeded into a 96-well plate, and continuously cultured for 24–36 h to ~90% confluence. To start activation assay, the medium was removed and the activation solution (serum-free DMEM medium plus 1% bovine serum albumin) containing 1.0 μM of forskolin and varied concentrations of peptide was added (100 μl/well). After being continuously cultured at 37 °C for 4 h, the activation solution was removed and the cells were lysed by lysis solution (100 μl/well, from Promega). The cell lysate was then transferred to a white opaque 96-well plate (50 μl/well), mixed with the freshly diluted substrate (50 μl/well), and bioluminescence was immediately measured on a SpectraMax M5 plate reader (Molecular Devices) using the luminescence mode. The measured bioluminescence data were expressed as mean ± SE (n = 3) and fitted to sigmoidal or linear curves using the SigmaPlot10.0 software.

The target of test [2] is T2, human RXFP3 (Homo sapiens, UniProt Q9NSD7).
T2 construct: expressed in transfected cells; host or cells: HEK293T
T2 sequence (Q9NSD7 1-469): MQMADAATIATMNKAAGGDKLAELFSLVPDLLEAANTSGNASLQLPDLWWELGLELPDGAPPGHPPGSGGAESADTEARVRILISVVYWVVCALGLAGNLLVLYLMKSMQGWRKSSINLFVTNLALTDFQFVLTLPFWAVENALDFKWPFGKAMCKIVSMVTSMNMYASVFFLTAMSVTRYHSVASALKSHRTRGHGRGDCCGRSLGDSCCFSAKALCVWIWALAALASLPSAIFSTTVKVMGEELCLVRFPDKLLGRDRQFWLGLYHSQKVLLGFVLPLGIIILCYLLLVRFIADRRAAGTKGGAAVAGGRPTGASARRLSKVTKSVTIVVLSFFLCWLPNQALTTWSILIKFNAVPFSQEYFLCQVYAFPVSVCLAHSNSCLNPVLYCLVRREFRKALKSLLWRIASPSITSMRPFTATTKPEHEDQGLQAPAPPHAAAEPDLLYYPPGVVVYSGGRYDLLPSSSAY
The test is described as above. Format: cell-based. Here is the method:
as §1, §2

Test [3] concerns the target T1, human RXFP4. In words: Receptor binding assay, competition with NanoLuc-conjugated R3/I5 tracer. The settings on record: for fold lower binding potency towards RXFP4 compared with wild-type INSL5: lower than wild-type INSL5. On the procedure:
(§3) Figure 3 Receptor binding activities of the mature INSL5 and R3/I5 mutants towards RXFP3 and RXFP4. A NanoLuc-conjugated R3/I5 peptide was used as tracer and HEK293T cells transiently overexpressing human RXFP3 or human RXFP4 were used as receptor source. The tracer concentration used in these assays was 0.5 nM. The nonspecific binding was obtained by competition with 1.0 μM of relaxin-3. The measured data were expressed as mean ± SE (n = 3) and fitted to sigmoidal curves using the software SigmaPlot 10.0.
(§4) The receptor binding assays of the mature INSL5 and R3/I5 mutants were carried out using a NanoLuc-conjugated R3/I5 peptide as tracer and the human embryonic kidney (HEK) 293T cells transiently overexpressing human RXFP3 or human RXFP4 as receptor source. Nonspecific binding was obtained by competition with 1.0 μM of human relaxin-3. Briefly, HEK293T cells were transiently transfected with the expression construct of human RXFP3 or human RXFP4. Next day, the transfected cells were trypsinised, seeded into a 96-well plate, and continuously cultured for 24–36 h to confluence. To start binding assay, the medium was removed and the binding solution (serum-free DMEM medium plus 1% bovine serum albumin) containing 0.5 nM of the NanoLuc-conjugated R3/I5 tracer and varied concentrations of competitor was added (100 μl/well). After incubation at 21 °C for 2 h, the binding solution was removed and the cells were washed twice by ice-cold phosphate-buffered saline (200 μl/well for each wash). Thereafter, the cells were lysed by lysis solution (100 μl/well, from Promega, Madison, WI, USA) and the cell lysate was transferred to a white opaque 96-well plate (50 μl/well). After mixing with the freshly diluted substrate (50 μl/well), bioluminescence was immediately measured on a SpectraMax M5 plate reader (Molecular Devices, Sunnyvale, CA, USA) using the luminescence mode. The measured bioluminescence data were expressed as mean ± SE (n = 3) and fitted to sigmoidal curves using the SigmaPlot10.0 software.

The target of test [4] is T2, human RXFP3. The description is as above. On the procedure:
as §3, §4

[5] abbreviates: HEK293T cells cotransfected with human RXFP4 and CRE-controlled NanoLuc reporter, 1.0 μM forskolin, 37 °C, 4 h, mean ± SE, n = 3, SEM.
Setting [6] is: HEK293T cells cotransfected with human RXFP3 and CRE-controlled NanoLuc reporter, 1.0 μM forskolin, 37 °C, 4 h, mean ± SE, n = 3, N.D., not detectable, SEM.
Where [7] appears, read: HEK293T cells transiently overexpressing human RXFP4, 0.5 nM NanoLuc-conjugated R3/I5 tracer, 21 °C, 2 h, mean ± SE, n = 3, SEM.
The mark [8] stands for this setting: HEK293T cells transiently overexpressing human RXFP3, 0.5 nM NanoLuc-conjugated R3/I5 tracer, 21 °C, 2 h, mean ± SE, n = 3, SEM.

T1 sequence (Q8TDU9 whole entry): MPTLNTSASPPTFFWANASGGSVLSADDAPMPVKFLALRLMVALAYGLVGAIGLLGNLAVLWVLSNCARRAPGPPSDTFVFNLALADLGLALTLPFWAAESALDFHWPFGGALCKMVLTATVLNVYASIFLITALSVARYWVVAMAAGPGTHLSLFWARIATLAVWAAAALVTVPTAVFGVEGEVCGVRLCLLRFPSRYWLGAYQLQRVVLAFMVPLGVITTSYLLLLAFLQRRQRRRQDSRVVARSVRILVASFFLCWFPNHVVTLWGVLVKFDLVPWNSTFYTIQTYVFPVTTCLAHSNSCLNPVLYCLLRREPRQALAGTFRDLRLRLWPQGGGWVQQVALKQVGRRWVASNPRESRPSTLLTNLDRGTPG

Turning to “[L(B9)R]INSL5: recombinant mature two-chain INSL5 mutant (Insulin-like peptide INSL5 B … KESVRLCGREYIRTVIYICASSRW; Insulin-like peptide INSL5 A … QDLQTLCCTDGCSMTDLSALC; ends and bridges not checked; cysteine pairing not given here; UniProt Q9Y5Q6 23-46; Q9Y5Q6 115-135, looked up, variant L9R)”, the “pEC50 RXFP4” value with human RXFP4 [1] (setting [5]) was found to be 9.87 ± 0.04. Further, in the test with human RXFP3 [2] (setting [6]), the “pEC50 RXFP3” value is 7.21 ± 0.04. Further, the “pIC50 RXFP4” value with human RXFP4 [3] (setting [7]) worked out at 7.85 ± 0.03. In the test with human RXFP3 [4] (setting [8]), the “pIC50 RXFP3” value is recorded as 7.87 ± 0.04. For the same molecule, the “fold higher binding potency towards RXFP3 than wild-type INSL5” value with human RXFP3 [4] (higher than wild-type INSL5) is given as ~ 4 fold.
Consider “[Y(B17)F]INSL5: recombinant mature two-chain INSL5 mutant (Insulin-like peptide INSL5 B … KESVRLCGLEYIRTVIFICASSRW; Insulin-like peptide INSL5 A … QDLQTLCCTDGCSMTDLSALC; ends and bridges not checked; cysteine pairing not given here; UniProt Q9Y5Q6 23-46; Q9Y5Q6 115-135, looked up, variant Y17F)”, for which the “pEC50 RXFP4” value in the test with human RXFP4 [1] (setting [5]) came out at 8.40 ± 0.09. In the test with human RXFP4 [1] (lower than wild-type INSL5), the “fold lower activation potency towards RXFP4 compared with INSL5” value is on record as ~ 9 fold. For the same molecule, the “pEC50 RXFP3” value with human RXFP3 [2] (setting [6]) worked out at 6.83 ± 0.08. The “pIC50 RXFP4” value with human RXFP4 [3] (setting [7]) was determined as 7.23 ± 0.03. Also, the “fold lower binding potency towards RXFP4 compared with wild-type INSL5” value with human RXFP4 [3] was ~ 3 fold. For the same molecule, the “pIC50 RXFP3” value in the test with human RXFP3 [4] (setting [8]) is recorded as 6.77 ± 0.05. Besides, the “fold lower binding potency towards RXFP3 compared with wild-type INSL5” value with human RXFP3 [4] (lower than wild-type INSL5) is ~ 3 fold.
As to “[L(B9)R,Y(B17)F]INSL5: recombinant mature two-chain INSL5 mutant (Insulin-like peptide INSL5 B … KESVRLCGREYIRTVIFICASSRW; Insulin-like peptide INSL5 A … QDLQTLCCTDGCSMTDLSALC; ends and bridges not checked; cysteine pairing not given here; UniProt Q9Y5Q6 23-46; Q9Y5Q6 115-135, looked up, variant L9R Y17F)”, the “pEC50 RXFP4” value with human RXFP4 [1] (setting [5]) is reported as 9.20 ± 0.03. Besides, the “pEC50 RXFP3” value with human RXFP3 [2] (HEK293T cells cotransfected with human RXFP3 and CRE-controlled NanoLuc reporter, 1.0 μM forskolin, 37 °C, 4 h, mean ± SE, n = 3, N.D., not detectable) is <6. For the same molecule, in the test with human RXFP3 [2] (lower than parent mutants [L(B9)R]INSL5 and [Y(B17)F]INSL5), the “fold lower activation potency towards RXFP3 than its parent mutants” value is ~ 10 fold. For the same molecule, the “pIC50 RXFP4” value with human RXFP4 [3] (setting [7]) is on record as 7.33 ± 0.03. Besides, the “fold lower binding potency towards RXFP4 compared with wild-type INSL5” value with human RXFP4 [3] was ~ 3 fold. In addition, the “pIC50 RXFP3” value in the test with human RXFP3 [4] (setting [8]) was 8.17 ± 0.04.
For `CC[C@H](C)[C@@H]1NC(=O)[C@H](Cc2ccccc2)NC(=O)[C@H](CCC(=O)O)NC(=O)[C@H](CCCNC(=N)N)NC(=O)CNC(=O)[C@@H](NC(=O)[C@H](CC(C)C)NC(=O)[C@H](CCCNC(=N)N)NC(=O)[C@@H](NC(=O)CNC(=O)[C@H](Cc2ccc(O)cc2)NC(=O)[C@@H]2CCCN2C(=O)[C@H](C)NC(=O)[C@H](C)NC(=O)[C@@H](N)CCCNC(=N)N)C(C)C)CSSC[C@@H]2NC(=O)[C@@H](NC(=O)[C@H](CO)NC(=O)[C@H](CO)NC(=O)[C@H](CO)NC(=O)[C@H](CC(C)C)NC(=O)CNC(=O)[C@H](C)NC(=O)[C@H](CC(C)C)NC(=O)[C@@H](NC(=O)[C@@H](N)CC(=O)O)C(C)C)CSSC[C@H](NC(=O)CNC(=O)[C@H](Cc3c[nH]c4ccccc34)NC(=O)[C@H](CCCCN)NC2=O)C(=O)N[C@@H](CO)C(=O)N[C@@H](CCCCN)C(=O)N[C@@H](CO)C(=O)N[C@@H](CCC(=O)O)C(=O)N[C@@H]([C@@H](C)CC)C(=O)N[C@@H](CO)C(=O)N[C@@H](CO)C(=O)N[C@@H](CC(C)C)C(=O)N[C@H](C(=O)O)CSSC[C@@H](C(=O)NCC(=O)NCC(=O)N[C@@H](CO)C(=O)N[C@@H](CCCNC(=N)N)C(=O)N[C@@H](Cc2c[nH]c3ccccc23)C(=O)O)NC(=O)[C@H]([C@@H](C)O)NC(=O)[C@H](Cc2ccccc2)NC(=O)[C@H]([C@@H](C)CC)NC(=O)[C@H](C(C)C)NC(=O)[C@H](C)NC(=O)[C@H](CCCNC(=N)N)NC1=O` [relaxin-3, reference compound], the EC50 on human RXFP4 [1] (HEK293T cells cotransfected with human RXFP4 and CRE-controlled NanoLuc reporter, 1.0 μM forskolin, 37 °C, 4 h, mean ± SE, n = 3, SEM, read-out: pEC50 RXFP4 (converted)) is 0.105 nM; on human RXFP3 [2] (HEK293T cells cotransfected with human RXFP3 and CRE-controlled NanoLuc reporter, 1.0 μM forskolin, 37 °C, 4 h, mean ± SE, n = 3, N.D., not detectable, SEM, read-out: pEC50 RXFP3 (converted)), 0.0245 nM. In addition, the IC50 is 12.3 nM at human RXFP4 [3] (HEK293T cells transiently overexpressing human RXFP4, 0.5 nM NanoLuc-conjugated R3/I5 tracer, 21 °C, 2 h, mean ± SE, n = 3, SEM, read-out: pIC50 RXFP4 (converted)) and 2.04 nM on human RXFP3 [4] (HEK293T cells transiently overexpressing human RXFP3, 0.5 nM NanoLuc-conjugated R3/I5 tracer, 21 °C, 2 h, mean ± SE, n = 3, SEM, read-out: pIC50 RXFP3 (converted)).
Take “R3/I5: chimeric peptide containing the B-chain of relaxin-3 and the A-chain of INSL5 [reference compound]”: in the test with human RXFP4 [1] (setting [5]), the “pEC50 RXFP4” value came to 10.32 ± 0.03. For the same molecule, the “pEC50 RXFP3” value with human RXFP3 [2] (setting [6]) came out at 10.44 ± 0.03. Also, the “pIC50 RXFP4” value with human RXFP4 [3] (setting [7]) was determined as 8.24 ± 0.03. In addition, the “pIC50 RXFP3” value with human RXFP3 [4] (setting [8]) is reported as 8.85 ± 0.02.
Consider “insulin-like peptide 5 (Insulin-like peptide INSL5 B … KESVRLCGLEYIRTVIYICASSRW; Insulin-like peptide INSL5 A … QDLQTLCCTDGCSMTDLSALC; UniProt Q9Y5Q6 23-46; Q9Y5Q6 115-135, looked up) [recombinant mature two-chain human INSL5, cognate agonist of RXFP4, reference compound]”, for which the “pEC50 RXFP4” value in the test with human RXFP4 [1] (setting [5]) turned out to be 9.36 ± 0.06. Also, in the test with human RXFP3 [2] (CRE-controlled NanoLuc reporter, HEK293T cells, human RXFP3), the “activation potency towards RXFP3, result in words” value was “no detectable activation potency”. Also, in the test with human RXFP4 [3] (setting [7]), the “pIC50 RXFP4” value is 7.75 ± 0.02. For the same molecule, the “pIC50 RXFP3” value with human RXFP3 [4] (setting [8]) is reported as 7.26 ± 0.05. In addition, the “fold lower binding affinity for RXFP3 than relaxin-3” value in the test with human RXFP3 [4] (lower than relaxin-3) is recorded as ~ 27 fold.
